By Kd is commonly meant the free concentration of one partner at which half of the binding sites on the other are occupied at equilibrium, for simple one-to-one binding. Low values mean tighter binding, high ones weaker binding. One may read the koff as the rate constant with which the complex falls apart. Broadly, the kon is a measure of how fast the partners come together. Low values mean slower complex formation, high ones faster complex formation.

Positions count from the first letter of the chain named.

The chains are these.
B1: C6-9L1 (scFv)
scFv: QVQLLQSGAELKKPGESLKISCKGSGYSFTSYWIAWVRQMPGKGLEYMGLIYPGDSDTKYSPSFQGQVTISVDKSVSTAYLQWSSLKPSDSAVYFCARHDVGYCSSSNCAKWPEYFQHWGQGTLVTVSSGGGGSGGGGSGGGGSQSVLTQPPSVSGAPGQWVTISCSGSSSNIGNNYVSWYQQLPGTAPKLLIYDNNKRPSGVPDRFSGSQSGTSASLAISGLRSEDEADYYCASWDYTLSGWVFGGGTKLTVLG
notes: C6L1 with the VL CDR3 of C6ML3-9
B2: C6-B1D5 (scFv)
scFv: QVQLLQSGAELKKPGESLKISCKGSGYSFTSYWIAWVRQMPGKGLEYMGLIYPGDSDTKYSPSFQGQVTISVDKSVSTAYLQWSSLKPSDSAVYFCARHDVGYCTDRTCAKWPEWMQMWGQGTLVTVSSGGGGSGGGGSGGGGSQSVLTQPPSVSAAPGQKVTISCSGSSSNIGNNYVSWYQQLPGTAPKLLIYGHTNRPAGVPDRFSGSKSGTSASLAISGFRSEDEADYYCASWDYTLSGWVFGGGTKLTVLG
notes: Combined B1 and D5 mutations on C6ML3-9
B3: C6-B47D1 (scFv)
scFv: B2 scFv with T108S, M116L, Q117H, M118V
notes: Combined B47 and D1 mutations on C6ML3-9
B4: C6-B1D3 (scFv)
scFv: B2 scFv with M116L, Q117D, M118N
notes: Combined B1 and D3 mutations on C6ML3-9
B5: C6-12L1 (scFv)
scFv: B1 scFv with S235A, T239S, L240R
notes: C6L1 with the VL CDR3 of C6ML3-12
B6: C6-B1D1 (scFv)
scFv: B2 scFv with M116L, Q117H, M118V
notes: Combined B and D library mutations on C6ML3-9
B7: C6-B1D6 (scFv)
scFv: B2 scFv with Q117Y, M118P
notes: Combined B1 and D6 mutations on C6ML3-9
B8: C6-B47D2 (scFv)
scFv: B2 scFv with T108S, M116L, Q117G, M118V
notes: Combined B47 and D2 mutations on C6ML3-9
B9: C6-B47D3 (scFv)
scFv: B2 scFv with T108S, M116L, Q117D, M118N
notes: Combined B47 and D3 mutations on C6ML3-9
B10: C6-B1D2 (scFv)
scFv: B2 scFv with M116L, Q117G, M118V
notes: Combined B1 and D2 mutations on C6ML3-9

The target in this assay is T1, c-erbB-2 ECD with a Ser-Gly-His6 C-terminal fusion (UniProt P04626 23-652).
T1 construct: extracellular domain; Expressed from CHO cells, IMAC purified; coupled to a CM5 chip, coated on plates, or biotinylated with NHS-LC-biotin; also called c-erbB-2 extracellular domain; biotinylated c-erbB-2 ECD
As to the kind of experiment: SPR BIAcore. The procedure:
All assays were performed in triplicate. Briefly, […] of radioiodinated sFv was added to 5×10^6 SK-OV cells in the presence of increasing concentrations of unlabeled sFv from the same preparation. After a 30 minute incubation at 20° C., the samples were washed with PBS at 4° C. and centrifuged at 500 g. The amount of labeled sFv bound to the cells was determined by counting the pellets in a gamma counter and the K_a, and K_d were calculated using the EBDA program (V 2.0, G. A. McPherson, 1983). The K_d of all the other isolated sFv were determined using surface plasmon resonance in a BIAcore (Pharmacia). In a BIAcore flow cell, approximately 1400 resonance units (RU) of c-erbB-2 ECD (25 μg/ml in 10 mM sodium acetate, pH 4.5) was coupled to a CM5 sensor chip (Johnsson et al. (1991), supra). Association and dissociation-rates were measured under continuous flow of […] using a concentration range from 50 to 800 nM. Rate constant $kon$ was determined from a plot of (1(dR/dt))/t vs concentration (Karlsson et al. (1991), supra). Rate constant $Hoff$ was determined from the dissociation part of the sensorgram at the highest concentration of sFv analyzed.
Mutants obtained by combining mutations of C6MH3-B1 or C6MH3-B47 with mutations from D library clones (D1, D2, D3, D5, D6). Rate constants $kon$ and $koff$ were measured by SPR in a BIAcore, and the K_d calculated.
A general note: Surface plasmon resonance follows binding to a sensor surface in real time, without labels.
Take B1: the Kd was 0.33 nM, the “Kd (C6.5)/Kd (mut)” value came to 49, the “Kd (parent)/Kd (mut)” value turned out to be 3 and the koff is 0.0003 s⁻¹. Further, the kon came to 920000 M⁻¹ s⁻¹.
As to B2, the Kd was 0.035 nM, the “Kd (C6.5)/Kd (mut)” value was determined as 457, the “Kd (parent)/Kd (mut)” value was determined as 3.4 and the koff was 1.8e-05 s⁻¹. The kon is 510000 M⁻¹ s⁻¹.
Consider B3, for which the affinity, expressed as Kd, was 0.068 nM; the “Kd (C6.5)/Kd (mut)” value was found to be 235; the “Kd (parent)/Kd (mut)” value came to 1.6; the koff came to 4.8e-05 s⁻¹. Besides, the kon was found to be 710000 M⁻¹ s⁻¹.
Consider B4, for which the Kd amounted to 0.013 nM, the “Kd (C6.5)/Kd (mut)” value stood at 1230, the “Kd (parent)/Kd (mut)” value worked out at 9.2 and the koff was determined as 8e-06 s⁻¹. Further, the kon came out at 640000 M⁻¹ s⁻¹.
For B5 the same measures were 0.19 nM, 84, 8.4, 0.00013 s⁻¹ and 670000 M⁻¹ s⁻¹.
For B6 the same measures were 0.032 nM, 500, 3.8, 1.5e-05 s⁻¹ and 470000 M⁻¹ s⁻¹.
For the molecule B7, the Kd was determined as 0.032 nM, the “Kd (C6.5)/Kd (mut)” value is 500, the “Kd (parent)/Kd (mut)” value was found to be 3.8 and the koff is 1.3e-05 s⁻¹. The kon came out at 410000 M⁻¹ s⁻¹.
With B8, the Kd stood at 0.044 nM, the “Kd (C6.5)/Kd (mut)” value worked out at 364, the “Kd (parent)/Kd (mut)” value stood at 2.5 and the koff is 4.3e-05 s⁻¹. Moreover, the kon is 980000 M⁻¹ s⁻¹.
B9: the Kd amounted to 0.048 nM, the “Kd (C6.5)/Kd (mut)” value amounted to 333, the “Kd (parent)/Kd (mut)” value came to 2.3 and the koff came to 3.2e-05 s⁻¹. In addition, the kon amounted to 660000 M⁻¹ s⁻¹.
With B10, the Kd turned out to be 0.015 nM, the “Kd (C6.5)/Kd (mut)” value turned out to be 1070, the “Kd (parent)/Kd (mut)” value turned out to be 8 and the koff is 1e-05 s⁻¹. Besides, the kon is 690000 M⁻¹ s⁻¹.

The values are drawn from patent publication US6512097.
